The labels stand for the following.
B1: Azoarcus group I ribozyme (parent)
chain: GUGCCUUGCGCCGGGAAACCACGCAAGGGAUGGUGUCAAAUUCGGCGAAACCUAAGCGCCCGCCCGGGCGUAUGGCAACGCCGAGCCAAGCUUCGGCGCCUGCGCCGAUGAAGGUGUAGAGACUAGACGGCACCCACCUAAGGCAAACGCUAUGGUGAAGGCAUAGUCCAGGGAGUGGCGAAAGUCACACAAACCGG

In this data set the parent is B1. Briefly: reverse-splicing fitness (ratio to wild type); higher = more active; in vitro selection; Mg2+ level not given. In a few lines:
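An in vitro group I ribozyme library with randomized positions was T7-transcribed and gel-purified. In triplicate, 10 pmol RNA in EPPS pH 7.5 was reacted with 50 pmoles of a 30-nt RNA substrate for 1 h at 37 °C across several added MgCl2 levels (1–48 mM), then stopped with EDTA. Products were reverse transcribed from a substrate-complementary primer, PCR-amplified and sequenced (HiSeq 4000). Fitness is a variant's read proportion after selection over that before, normalised to wild type.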
On to C82G A111U A120G A145C C150U C169G U176C, for which the reverse-splicing fitness was 0.0136.

In the case of C82A A111U C150A C169G, the reverse-splicing fitness is 0.00884.

For C82G A111U A120U C150G C169G, the reverse-splicing fitness is 0.0064.

Take C82U A111G A120U A145G C169G U176A: the reverse-splicing fitness came to 0.00278.

On to A120U A145G C150G C169U U176C, for which the reverse-splicing fitness turned out to be 0.0205.

As for C82U A111U A120U C150A U176C, the reverse-splicing fitness was found to be 0.00596.

As for C82A A111G A120U A145G C169A U176G, the reverse-splicing fitness worked out at 0.002.

With A111G A120C A145C U176G, the reverse-splicing fitness was found to be 0.129.

In the case of C82G A111G A120U A145G C169G, the reverse-splicing fitness worked out at 0.00538.

Consider C82U A111G A145C C150U C169A, for which the reverse-splicing fitness came out at 0.00735.

On to C82U A111C A120G A145U C150G C169U U176G, for which the reverse-splicing fitness was found to be 0.00419.

With C82A A120G C150A, the reverse-splicing fitness came to 0.0107.

Take C82A A111U A120U A145C C169G U176A: the reverse-splicing fitness came to 0.00281.

Turning to C82G A120G C150G C169A U176C, the reverse-splicing fitness came to 0.0102.

As for C82G A111C A145U C169U U176C, the reverse-splicing fitness came to 0.0153.

As for C82G A111C A120C A145U C150A C169G U176G, the reverse-splicing fitness is 0.00775.

On to C82U A111U A120C A145U C150A U176C, for which the reverse-splicing fitness came to 0.00963.

On to C82A A111G A145U C150A C169A U176C, for which the reverse-splicing fitness amounted to 0.0106.

Turning to A111G A120G C169G, the reverse-splicing fitness is 0.321.

For the variant C82U A120U A145C C169G, the reverse-splicing fitness stood at 0.00426.

As to C82U A111G A120U A145C C150A U176G, the reverse-splicing fitness came to 0.002.

With C82A A111C A120C A145C C150A C169A U176G, the reverse-splicing fitness turned out to be 0.00733.

On to C82U A111G A145G C150U C169G, for which the reverse-splicing fitness is 0.00979.

Consider C82G A120C A145U C150A C169U U176G, for which the reverse-splicing fitness worked out at 0.00492.

Regarding C82U A120G C150G C169U, the reverse-splicing fitness turned out to be 0.00921.

As for A111C A120C A145G C150G C169A, the reverse-splicing fitness came to 0.009.

Turning to C82G A111C A120G C150A U176G, the reverse-splicing fitness worked out at 0.0081.

As to C82A A111U A120U C150G U176C, the reverse-splicing fitness came to 0.00606.

For C82A A111U A120U A145G C150U C169U U176C, the reverse-splicing fitness came out at 0.00506.

On to A111C A120U A145U U176C, for which the reverse-splicing fitness came out at 0.271.

C82G A111G A120U U176C: the reverse-splicing fitness turned out to be 0.0294.

As for C82A A111U A145C C169U U176A, the reverse-splicing fitness was 0.016.

With C82G A111U C150U U176A, the reverse-splicing fitness was determined as 0.0918.

Consider C82A A120C A145U C169U U176G, for which the reverse-splicing fitness was 0.0041.

With C82G A111U A145G C169U U176A, the reverse-splicing fitness came out at 0.0134.

Consider C82U A111G A120C C150G, for which the reverse-splicing fitness came to 0.00825.

With C82U A111G A120C C150A, the reverse-splicing fitness was 0.0113.

Take C82A A111G C150G U176C: the reverse-splicing fitness came to 0.0152.

As for A120U A145C C150A C169U U176A, the reverse-splicing fitness is 0.00859.

For the variant A111G A145U C150A C169G U176G, the reverse-splicing fitness was 0.00512.

Consider C82U A111U A145G C150U C169G, for which the reverse-splicing fitness is 0.00883.

As for C82G A111C A145U C150U U176A, the reverse-splicing fitness is 0.0841.

C82A A111U A120U A145U C150A: the reverse-splicing fitness was 0.00619.

As to C82U A111U A120C A145U C150G C169A, the reverse-splicing fitness amounted to 0.00868.

As for C82A A145C C150G C169U U176G, the reverse-splicing fitness was determined as 0.00534.

For the variant C82U A111U A120U A145U U176C, the reverse-splicing fitness is 0.0111.

For the variant C82G A120U A145C C150G C169A, the reverse-splicing fitness amounted to 0.00195.

Consider C82G A120U A145C C150G C169U, for which the reverse-splicing fitness came to 0.00302.

Regarding C82U A111U A120G A145G C150A C169A U176G, the reverse-splicing fitness amounted to 0.00564.

In the case of A111C A120U A145G C169A U176A, the reverse-splicing fitness was determined as 0.00375.

As to A111C A120G A145G C150G U176A, the reverse-splicing fitness is 0.00942.

For A111C A120G C150G C169U U176G, the reverse-splicing fitness came out at 0.00441.

For the variant C82A A120C A145C C150A C169U, the reverse-splicing fitness worked out at 0.00877.

Consider C82G A120U A145C C169A U176G, for which the reverse-splicing fitness was 0.00157.

For the variant C82G A111U A120G C150G U176C, the reverse-splicing fitness was 0.0117.

Take C82U A111G A120G A145C C150A U176G: the reverse-splicing fitness came to 0.00354.

On to C82G A111U A120U A145G C150A C169G U176A, for which the reverse-splicing fitness was determined as 0.00878.

As for C82A A111U A145C C150G U176A, the reverse-splicing fitness was 0.0104.

As for A111C U176C, the reverse-splicing fitness is 0.38.

For the variant C82G A111C A120C A145U U176G, the reverse-splicing fitness is 0.00884.

Regarding A111G A120C A145U C169G U176C, the reverse-splicing fitness was found to be 0.00882.

As for C82U A111G A120C U176C, the reverse-splicing fitness is 0.0288.

Take C82G A145G C169G: the reverse-splicing fitness was 0.0112.

On to C82G A111G A120C A145C C150A U176G, for which the reverse-splicing fitness was 0.00662.

C82U A111U A120C A145G C169G: the reverse-splicing fitness amounted to 0.00779.

Take A145G C150U C169A U176G: the reverse-splicing fitness stood at 0.00628.

A120G U176C: the reverse-splicing fitness was determined as 0.222.

For the variant C82A A145G C169U U176A, the reverse-splicing fitness was 0.0146.

On to C82A A111C A120C A145G C150G C169U U176G, for which the reverse-splicing fitness turned out to be 0.00808.

As for C82A A120G A145G, the reverse-splicing fitness turned out to be 0.0225.

On to A111G A120G A145U C150G C169A U176A, for which the reverse-splicing fitness is 0.0101.

Turning to C82A A111C A120G A145G C150A C169A U176G, the reverse-splicing fitness was 0.00667.

Take A111U A120C C150U C169A U176A: the reverse-splicing fitness was found to be 0.018.

As to C82U A111C A120G A145G C150G C169U, the reverse-splicing fitness is 0.00832.

Take A120C A145G C169U U176C: the reverse-splicing fitness came to 0.185.

C82G A111U A120U A145G C150G C169G: the reverse-splicing fitness is 0.00714.

With C82A A111U C150U C169A U176C, the reverse-splicing fitness was 0.015.

On to C82G A111G A120G A145G C169G U176A, for which the reverse-splicing fitness was 0.0184.

For the variant C82A A111G A145U C169G U176A, the reverse-splicing fitness was determined as 0.011.

Turning to C82A A120C A145C C150G C169G, the reverse-splicing fitness is 0.00784.

Turning to C82G A120C A145C C150A C169U U176A, the reverse-splicing fitness is 0.0134.

With C82A A120G A145C C150G C169G U176C, the reverse-splicing fitness is 0.00676.

In the case of C82G A111U A120U A145C C150A C169G U176G, the reverse-splicing fitness came to 0.00199.
